We go through 2 substances from publication doi:10.1101/2022.03.13.484121.

Assay [1] addresses pro-meprin α C308A (human (from the printed accession)) (UniProt Q16819). Nature of the assay: SEC-MALS. Background: In gel filtration, larger molecules generally elute earlier.
The target of assay [2] is meprin α R372T, mature (activated) form (human (from the printed accession)) (UniProt Q16819). Briefly: MALDI-TOF mass spectrometry.

One may read the stoichiometry N as a count of units in the complex or per binding partner. On to “pro-meprin α C308A (from UniProt Q16819 22-600) (enzyme)”, for which the stoichiometry N in assay [1] stood at 2.
“meprin α R372T, mature (activated) form (from UniProt Q16819 22-600) (enzyme)”: the stoichiometry N in assay [2] is 2.
